Laboratory results as given in US20260043807A1.
Like-named read-outs stand apart in the source and are kept apart here.

How the values were obtained:
Goat IgG [1] = test: photo-crosslinking, 365 nm 2 hrs, SDS-PAGE (FIG. 6)
Goat IgG [2] = test: as above; remark: listed apart in the source

Protein L C* domain T46BPA (designed binder)
conjugation efficiency (Goat IgG [1]): 30 to 50% | conjugation efficiency (Goat IgG [2]): 50%
